No end group written: not given here.
Molecular target: T1, cell surface antigen PSMA on Lncap cell line with high PSMA expression (UniProt Q04609 1-750, limits assumed)
T1 construct: whole, on cells; Lncap is a prostate cancer cell line; also called Lncap cells
Assay: immunofluorescence on Lncap cells (high PSMA expression), FITC marker
Experimental: Immunofluorescence detection was performed on KHL peptides in Lncap cell lines with high PSMA expression and PC3 cell lines with low PSMA expression, using FITC as the fluorescent marker.

T1 sequence (Q04609 whole entry): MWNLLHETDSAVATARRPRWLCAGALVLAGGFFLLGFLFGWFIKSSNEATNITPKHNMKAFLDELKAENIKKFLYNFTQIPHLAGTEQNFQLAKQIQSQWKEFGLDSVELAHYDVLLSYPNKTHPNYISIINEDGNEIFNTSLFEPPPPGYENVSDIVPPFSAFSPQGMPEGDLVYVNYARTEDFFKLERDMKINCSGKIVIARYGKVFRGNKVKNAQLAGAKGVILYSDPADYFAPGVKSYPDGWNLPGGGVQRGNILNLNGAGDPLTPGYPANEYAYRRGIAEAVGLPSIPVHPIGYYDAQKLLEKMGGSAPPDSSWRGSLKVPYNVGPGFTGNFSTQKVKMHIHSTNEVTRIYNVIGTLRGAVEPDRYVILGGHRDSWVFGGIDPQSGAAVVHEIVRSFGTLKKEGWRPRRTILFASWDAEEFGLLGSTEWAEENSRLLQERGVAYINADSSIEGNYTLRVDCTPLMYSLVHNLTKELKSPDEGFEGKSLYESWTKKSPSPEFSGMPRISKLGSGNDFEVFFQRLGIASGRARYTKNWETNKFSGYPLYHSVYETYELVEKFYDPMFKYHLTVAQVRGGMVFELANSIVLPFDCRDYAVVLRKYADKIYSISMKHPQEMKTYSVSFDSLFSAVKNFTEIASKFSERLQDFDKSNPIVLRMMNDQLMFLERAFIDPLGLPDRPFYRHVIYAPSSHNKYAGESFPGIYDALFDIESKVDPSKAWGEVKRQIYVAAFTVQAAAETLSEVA

- binding result: binds
Binder: KHLHYHSSVRYG (also: FITC label, attachment site not given here, also called KHL peptide conjugate) [KHL peptide with FITC as the fluorescent marker]
